Measured values from article PMC4457826, “Crystal Structure of USP7 Ubiquitin-like Domains with an ICP0 Peptide Reveals a Novel Mechanism Used by Viral and Cellular Proteins to Target USP7” (PLoS Pathogens, 2015).
Primed or numbered codes have the meaning given here. No end group written: not given here. FITC′ = fluorescein isothiocyanate label; GST = glutathione S-transferase fusion

What was measured:
full length USP7 [1] = biological target: T1, full length USP7 (human, UniProt Q93009 1-1102); assay: pull-down; GST pull-down: 250 μg USP7 protein with 250 μg GST fusion in 50 mM Tris pH 8.0, 100 mM NaCl, 5 mM DTT, 5% glycerol, on glutathione-sepharose overnight at 4°C; eluted with 30 mM reduced glutathione; Coomassie stained gel; settings: both partners purified
T1 construct: Ubiquitin specific protease 7 (USP7, HAUSP), human, full length; also called FL-USP7; USP7-FL; source: Sf9 cells, purified (SEC)
T1 sequence (Q93009 whole entry, the tested form may be a part): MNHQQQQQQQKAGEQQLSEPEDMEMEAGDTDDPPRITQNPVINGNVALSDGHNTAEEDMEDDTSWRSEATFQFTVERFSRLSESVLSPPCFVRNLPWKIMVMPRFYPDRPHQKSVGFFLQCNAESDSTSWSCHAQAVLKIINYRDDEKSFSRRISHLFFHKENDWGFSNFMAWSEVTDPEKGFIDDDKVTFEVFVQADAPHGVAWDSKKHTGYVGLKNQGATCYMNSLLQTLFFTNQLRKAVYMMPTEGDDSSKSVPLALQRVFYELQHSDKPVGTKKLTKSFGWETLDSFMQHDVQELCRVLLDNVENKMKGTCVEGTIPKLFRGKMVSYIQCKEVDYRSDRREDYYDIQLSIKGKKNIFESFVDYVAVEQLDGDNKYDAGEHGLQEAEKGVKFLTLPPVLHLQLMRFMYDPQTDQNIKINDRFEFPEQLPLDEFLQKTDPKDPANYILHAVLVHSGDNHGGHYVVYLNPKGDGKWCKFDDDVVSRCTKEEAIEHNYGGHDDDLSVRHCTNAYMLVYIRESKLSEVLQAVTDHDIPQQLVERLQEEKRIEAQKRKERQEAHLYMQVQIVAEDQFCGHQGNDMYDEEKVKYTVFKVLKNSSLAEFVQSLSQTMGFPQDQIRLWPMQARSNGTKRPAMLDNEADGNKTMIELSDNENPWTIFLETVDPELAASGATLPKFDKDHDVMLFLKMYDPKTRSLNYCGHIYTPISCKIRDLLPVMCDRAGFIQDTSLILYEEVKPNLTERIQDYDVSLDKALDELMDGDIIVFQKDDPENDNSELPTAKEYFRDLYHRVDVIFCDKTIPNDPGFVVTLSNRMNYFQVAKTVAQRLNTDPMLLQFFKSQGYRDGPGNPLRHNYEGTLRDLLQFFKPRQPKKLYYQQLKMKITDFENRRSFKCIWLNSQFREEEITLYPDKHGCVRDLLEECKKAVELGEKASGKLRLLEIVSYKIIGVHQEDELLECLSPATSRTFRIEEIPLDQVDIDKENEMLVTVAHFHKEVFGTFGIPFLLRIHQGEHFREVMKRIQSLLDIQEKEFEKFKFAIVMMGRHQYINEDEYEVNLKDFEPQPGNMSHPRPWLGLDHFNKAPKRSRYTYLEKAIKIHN

USP7 Ubl123 (535-889) [2] = biological target: T2, USP7 Ubl123 (535-889) (human, UniProt Q93009 535-889); assay: as above; settings: both partners purified
T2 construct: USP7, human, residues 535-889 (spacer helix 535-560 and Ubl1-3); Cloned in p15TV-L; also called native Ubl123; source: E. coli BL21(DE3)mgk, purified (nickel-NTA, SEC)
T2 sequence (Q93009 535-889): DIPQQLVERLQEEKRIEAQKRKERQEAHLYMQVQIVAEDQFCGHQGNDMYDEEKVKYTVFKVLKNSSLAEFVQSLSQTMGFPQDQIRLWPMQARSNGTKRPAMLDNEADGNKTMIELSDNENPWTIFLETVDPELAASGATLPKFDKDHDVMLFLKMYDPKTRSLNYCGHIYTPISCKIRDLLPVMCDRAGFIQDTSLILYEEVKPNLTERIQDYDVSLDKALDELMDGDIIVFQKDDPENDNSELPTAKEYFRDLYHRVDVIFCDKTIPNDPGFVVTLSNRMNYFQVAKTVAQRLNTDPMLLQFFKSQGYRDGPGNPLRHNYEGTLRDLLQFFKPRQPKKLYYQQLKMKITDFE

USP7-CTD (535-1102) [3] = biological target: T3, USP7-CTD (535-1102) (human, UniProt Q93009 535-1102); assay: as above; settings: both partners purified
T3 construct: USP7, human, residues 535-1102 (spacer helix and five Ubl domains); Cloned in p15TV-L; also called WT USP7-CTD; C-terminal domain; source: E. coli BL21(DE3)mgk, purified (nickel-NTA, SEC)
T3 sequence (Q93009 535-1102): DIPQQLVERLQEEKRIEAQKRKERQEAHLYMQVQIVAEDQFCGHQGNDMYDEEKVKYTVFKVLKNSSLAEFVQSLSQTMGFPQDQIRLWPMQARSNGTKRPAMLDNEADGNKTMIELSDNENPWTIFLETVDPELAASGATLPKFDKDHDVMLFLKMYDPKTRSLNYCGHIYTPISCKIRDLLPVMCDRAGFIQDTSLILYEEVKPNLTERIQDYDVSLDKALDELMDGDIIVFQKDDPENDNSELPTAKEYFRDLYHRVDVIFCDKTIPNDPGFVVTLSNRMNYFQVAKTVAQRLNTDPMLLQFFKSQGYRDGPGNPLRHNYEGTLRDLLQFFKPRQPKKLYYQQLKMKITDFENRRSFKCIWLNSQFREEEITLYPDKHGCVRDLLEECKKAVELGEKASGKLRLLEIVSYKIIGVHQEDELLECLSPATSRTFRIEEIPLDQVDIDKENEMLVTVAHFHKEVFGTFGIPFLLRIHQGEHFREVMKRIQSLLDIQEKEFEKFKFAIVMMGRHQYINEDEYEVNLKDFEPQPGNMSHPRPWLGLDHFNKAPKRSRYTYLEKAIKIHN

USP7 Ubl12 (535-776) = biological target: T4, USP7 Ubl12 (535-776) (human, UniProt Q93009 535-776); assay: as above; settings: both partners purified
T4 construct: USP7, human, residues 535-776; Cloned in p15TV-L; source: E. coli BL21(DE3)mgk, purified (nickel-NTA, SEC)
T4 sequence (Q93009 535-776): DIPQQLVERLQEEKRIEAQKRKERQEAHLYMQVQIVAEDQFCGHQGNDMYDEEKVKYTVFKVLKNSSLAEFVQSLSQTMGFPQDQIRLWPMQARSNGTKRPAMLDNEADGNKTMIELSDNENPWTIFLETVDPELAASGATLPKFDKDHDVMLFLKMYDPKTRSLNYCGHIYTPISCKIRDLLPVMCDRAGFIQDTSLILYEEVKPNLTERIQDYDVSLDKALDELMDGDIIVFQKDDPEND

USP7 Ubl123 D762A = biological target: T5, USP7 Ubl123 D762A (human, UniProt Q93009 535-889, D762A); assay: fluorescence polarisation; USP7 proteins titrated (0 to 200 μM) into 40 nM N-terminally FITC-labeled peptide; 0.01% Triton X-100, 150 mM NaCl, 20 mM Tris pH 7.5; settings: both partners purified
T5 construct: USP7, human, residues 535-889 with D762A; Synthesized (Genscript), in pET15b; also called Ubl123 mutant D762A; source: E. coli BL21(DE3)mgk, purified (nickel-NTA, SEC)
T5 sequence (Q93009 535-889 D762A): as the sequence (Q93009 535-889) above, with D228A counted along it

USP7 Ubl123 E759A = biological target: T6, USP7 Ubl123 E759A (human, UniProt Q93009 535-889, E759A); assay: as above; settings: both partners purified
T6 construct: USP7, human, residues 535-889 with E759A; Synthesized (Genscript), in pET15b; also called Ubl123 mutant E759A; source: E. coli BL21(DE3)mgk, purified (nickel-NTA, SEC)
T6 sequence (Q93009 535-889 E759A): as the sequence (Q93009 535-889) above, with E225A counted along it

full length USP7 [4] = biological target: T1, full length USP7; assay: as above; settings: both partners purified
USP7 Ubl123 (535-889) [5] = biological target: T2, USP7 Ubl123 (535-889); assay: as above; settings: both partners purified
USP7 Ubl123 D762A/D764A = biological target: T7, USP7 Ubl123 D762A/D764A (human, UniProt Q93009 535-889, D762A/D764A | D762A/D764A); assay: as above; settings: both partners purified
T7 construct: USP7, human, residues 535-889 with D762A and D764A; Synthesized (Genscript), in pET15b; also called Ubl123 mutant D762A/D764A; source: E. coli BL21(DE3)mgk, purified (nickel-NTA, SEC)
T7 sequence (Q93009 535-889 D762A/D764A): as the sequence (Q93009 535-889) above, with D228A, D230A counted along it

USP7 Ubl123 D764A = biological target: T8, USP7 Ubl123 D764A (human, UniProt Q93009 535-889, D764A); assay: as above; settings: both partners purified
T8 construct: USP7, human, residues 535-889 with D764A; Synthesized (Genscript), in pET15b; also called Ubl123 mutant D764A; source: E. coli BL21(DE3)mgk, purified (nickel-NTA, SEC)
T8 sequence (Q93009 535-889 D764A): as the sequence (Q93009 535-889) above, with D230A counted along it

USP7-CTD (535-1102) [6] = biological target: T3, USP7-CTD (535-1102); assay: as above; settings: both partners purified
USP7-CTD (535-1102) [7] = biological target: T3, USP7-CTD (535-1102); assay: fluorescence polarisation; competition: fixed USP7-CTD (8 μM), 40 nM FITC-UHRF1, increasing unlabeled ICP0 peptide (0 to 2500 μM); settings: both partners purified
[8] = biological target: T9, myc-tagged USP7 D762R/D764R (human, UniProt Q93009 1-1102, D762R/D764R | D762R/D764R); assay: co-IP; 293T cells transfected with myc-USP7 (with or without ICP0); RIPA lysate, anti-myc antibody and protein A/G agarose; Western blot for ICP0, GMPS or UHRF1; settings: partners not purified
T9 construct: USP7, human, full length with D762R and D764R, sub-cloned into pCANmycUSP7; also called MRGR; D762R/D764R (MRGR) USP7; source: 293T cells, transfected (pCANmycUSP7), in lysate
T9 sequence (Q93009 whole entry D762R/D764R): as the sequence (Q93009 whole entry, the tested form may be a part) above, with D762R, D764R counted along it

B1: GST-ICP0 615-629 (peptide)
chain: PRGPRKCARKTRHAE
notes: ICP0 of herpes simplex virus 1, residues 615-629; also called ICP0 peptide 615–629; GST-ICP0 peptide; source: E. coli BL21(DE3), purified (glutathione-sepharose)
- binding result (full length USP7 [1]): binds
- binding result (USP7 Ubl123 (535-889) [2]): binds
- binding result (USP7-CTD (535-1102) [3]): binds
- binding result (USP7 Ubl12 (535-776)): binds

B2: FITC-labeled ICP0 peptide (peptide)
chain: {FITC′}-GPRKCARKTRH
- Kd (USP7 Ubl123 D762A): > 100 µM
- Kd (USP7 Ubl123 E759A): > 100 µM
- Kd (full length USP7 [4]): 3.2 µM
- Kd (USP7 Ubl123 (535-889) [5]): 1.6 µM
- Kd (USP7 Ubl123 D762A/D764A): > 100 µM
- Kd (USP7 Ubl123 D764A): > 100 µM

B3: FITC-GMPS peptide (peptide)
peptide: {FITC′}-DRTPRKRISKTLN
notes: GMP synthase (GMPS), residues 316-328 ('this GMPS peptide'); also called N-terminal FITC containing GMPS peptide; source: synthetic peptide (CanPeptide)
- Kd (USP7-CTD (535-1102) [6]): 32 µM

B4: FITC-UHRF1 peptide (peptide)
chain: {FITC′}-TGKGKWKR
- Kd (USP7-CTD (535-1102) [6]): 5.6 µM

B5: GST-GMPS peptide (316-328) (peptide)
chain: {GST}-DRTPRKRISKTLN
notes: GMP synthase (GMPS), residues 316-328; also called WT GST-GMPS; source: E. coli BL21(DE3), purified (glutathione-sepharose)
- binding result (USP7-CTD (535-1102) [3]): binds

B6: GST-ICP0 594-775 (domain or fragment)
chain: AVGALGGRQEETSLGPRAASGPRGPRKCARKTRHAETSGAVPAGGLTRYLPISGVSSVVALSPYVNKTITGDCLPILDMETGNIGAYVVLVDQTGNMATRLRAAVPGWSRRTLLPETAGNHVMPPEYPTAPASEWNSLWMTPVGNMLFDQGTLVGALDFRSLRSRHPWSGEQGASTRDEGKQ
notes: ICP0 of herpes simplex virus 1, residues 594-775; also called longer ICP0 peptide; source: E. coli BL21(DE3), purified (glutathione-sepharose)
- binding result (USP7-CTD (535-1102) [3]): binds

B7: GST-ICP0 619-633 (peptide)
chain: RKCARKTRHAETSGA
notes: ICP0 of herpes simplex virus 1, residues 619-633; also called ICP0 peptide 619–633; source: E. coli BL21(DE3), purified (glutathione-sepharose)
- binding result (full length USP7 [1]): binds
- binding result (USP7-CTD (535-1102) [3]): binds

B8: unlabeled ICP0 peptide (peptide)
chain: GPRKCARKTRH
modifications: not fully specified
- Ki (USP7-CTD (535-1102) [7]): 20.6 µM

B9: ICP0 (expressed in 293T cells) (natural protein)
chain: MEPRPGASTRRPEGRPQREPAPDVWVFPCDRDLPDSSDSEAETEVGGRGDADHHDDDSASEADSTDTELFETGLLGPQGVDGGAVSGGSPPREEDPGSCGGAPPREDGGSDEGDVCAVCTDEIAPHLRCDTFPCMHRFCIPCMKTWMQLRNTCPLCNAKLVYLIVGVTPSGSFSTIPIVNDPQTRMEAEEAVRAGTAVDFIWTGNQRFAPRYLTLGGHTVRALSPTHPEPTTDEDDDDLDDADYVPPAPRRTPRAPPRRGAAAPPVTGGASHAAPQPAAARTAPPSAPIGPHGSSNTNTTTNSSGGGGSRQSRAAAPRGASGPSGGVGVGVGVVEAEAGRPRGRTGPLVNRPAPLANNRDPIVISDSPPASPHRPPAAPMPGSAPRPGPPASAAASGPARPRAAVAPCVRAPPPGPGPRAPAPGAEPAARPADARRVPQSHSSLAQAANQEQSLCRARATVARGSGGPGVEGGHGPSRGAAPSGAAPLPSAASVEQEAAVRPRKRRGSGQENPSPQSTRPPLAPAGAKRAATHPPSDSGPGGRGQGGPGTPLTSSAASASSSSASSSSAPTPAGAASSAAGAASSSASASSGGAVGALGGRQEETSLGPRAASGPRGPRKCARKTRHAETSGAVPAGGLTRYLPISGVSSVVALSPYVNKTITGDCLPILDMETGNIGAYVVLVDQTGNMATRLRAAVPGWSRRTLLPETAGNHVMPPEYPTAPASEWNSLWMTPVGNMLFDQGTLVGALDFRSLRSRHPWSGEQGASTRDEGKQ
notes: also called pCI-110 ICP0; source: 293T cells, transfected (pCI-110 ICP0), in lysate
- fold decrease of recovery against WT USP7 [8]: 2 fold

B10: endogenous GMPS (natural protein)
chain: not shown
notes: GMP synthase (GMPS), endogenous in 293T cells; also called GMP synthase; source: endogenous, 293T lysate
- percent binding relative to recovery with WT USP7 [8]: 35%

B11: endogenous UHRF1 (natural protein, human (endogenous in 293T), UniProt Q96T88 1-793, looked up)
chain: MWIQVRTMDGRQTHTVDSLSRLTKVEELRRKIQELFHVEPGLQRLFYRGKQMEDGHTLFDYEVRLNDTIQLLVRQSLVLPHSTKERDSELSDTDSGCCLGQSESDKSSTHGEAAAETDSRPADEDMWDETELGLYKVNEYVDARDTNMGAWFEAQVVRVTRKAPSRDEPCSSTSRPALEEDVIYHVKYDDYPENGVVQMNSRDVRARARTIIKWQDLEVGQVVMLNYNPDNPKERGFWYDAEISRKRETRTARELYANVVLGDDSLNDCRIIFVDEVFKIERPGEGSPMVDNPMRRKSGPSCKHCKDDVNRLCRVCACHLCGGRQDPDKQLMCDECDMAFHIYCLDPPLSSVPSEDEWYCPECRNDASEVVLAGERLRESKKKAKMASATSSSQRDWGKGMACVGRTKECTIVPSNHYGPIPGIPVGTMWRFRVQVSESGVHRPHVAGIHGRSNDGAYSLVLAGGYEDDVDHGNFFTYTGSGGRDLSGNKRTAEQSCDQKLTNTNRALALNCFAPINDQEGAEAKDWRSGKPVRVVRNVKGGKNSKYAPAEGNRYDGIYKVVKYWPEKGKSGFLVWRYLLRRDDDEPGPWTKEGKDRIKKLGLTMQYPEGYLEALANREREKENSKREEEEQQEGGFASPRTGKGKWKRKSAGGGPSRAGSPRRTSKKTKVEPYSLTAQQSSLIREDKSNAKLWNEVLASLKDRPASGSPFQLFLSKVEETFQCICCQELVFRPITTVCQHNVCKDCLDRSFRAQVFSCPACRYDLGRSYAMQVNQPLQTVLNQLFPGYGNGR
notes: UHRF1 (NP95), endogenous in 293T cells; also called NP95; source: endogenous, 293T lysate
- percent binding relative to recovery with WT USP7 [8]: 21%

B12: GST-ICP0 611-625 (peptide)
chain: AASGPRGPRKCARKT
notes: ICP0 of herpes simplex virus 1, residues 611-625; also called ICP0 region 611–625; source: E. coli BL21(DE3), purified (glutathione-sepharose)
- binding result (full length USP7 [1]): binds
- binding result (USP7-CTD (535-1102) [3]): binds
